Experimental data reported in the MegaScale stability set (Tsuboyama et al. 2023).

B1: HHH_rd1_0493 (parent)
chain: RDEDEKEKIKEALKRGNEDKAKEIAKRANVSPEEYERLRKEAE

Variants of: B1
Experiment: folding stability dG (cDNA display proteolysis); higher = more stable
Conditions: PBS, room temperature

Variant	folding stability dG [kcal/mol]
RDEDEKEKIKEALKRGNEDKAKEIAKQANVSPEEYERLRKEAE [R27Q]	2.83
RDEDEKEKIKEALKRGNEDKAKEIAKSANVSPEEYERLRKEAE [R27S]	2.68
RDEDEKEKIKEALKRGNEDKAKEIAKWANVSPEEYERLRKEAE [R27W]	2
RDEDEKEKIKEALKRGNEDKAKEIAKIANVSPEEYERLRKEAE [R27I]	2.65
RDEDEKEKIKEALKRGNEDKAKEIAKLANVSPEEYERLRKEAE [R27L]	2.82
RDEDEKEKIKEALKRGNEDKAKEIAKCANVSPEEYERLRKEAE [R27C]	2
RDEDEKEKIKEALKRGNEDKAKEIAKKANVSPEEYERLRKEAE [R27K]	2.93
RDEDEKEKIKEALKRGNEDKAKEIAKTANVSPEEYERLRKEAE [R27T]	2.51
RDEDEKEKIKEALKRGNEDKAKEIAKYANVSPEEYERLRKEAE [R27Y]	2.21
RDEDEKEKIKEALKRGNEDKAKEIAKDANVSPEEYERLRKEAE [R27D]	2.26
RDEDEKEKIKEALKRGNEDKAKEIAKGANVSPEEYERLRKEAE [R27G]	2.36
RDEDEKEKIKEALKRGNEDKAKEIAKNANVSPEEYERLRKEAE [R27N]	2.83
RDEDEKEKIKEALKRGNEDKAKEIAKAANVSPEEYERLRKEAE [R27A]	3.04
RDEDEKEKIKEALKRGNEDKAKEIAKEANVSPEEYERLRKEAE [R27E]	2.71
RDEDEKEKIKEALKRGNEDKAKEIAKFANVSPEEYERLRKEAE [R27F]	2.01
RDEDEKEKIKEALKRGNEDKAKEIAKHANVSPEEYERLRKEAE [R27H]	2.61
RDEDEKEKIKEALKRGNEDKAKEIAKMANVSPEEYERLRKEAE [R27M]	2.61
RDEDEKEKIKEALKRGNEDKAKEIAKPANVSPEEYERLRKEAE [R27P]	0.689
RDEDEKEKIKEALKRGNEDKAKEIAKVANVSPEEYERLRKEAE [R27V]	2.42
RDEDEKEKIKEALKRGNEDKAKEITKRANVSPEEYERLRKEAE [A25T]	1.01

Variant	folding stability dG [kcal/mol]
RDEDEKEKIKEALKRGNEDKAKEIRKRANVSPEEYERLRKEAE [A25R]	1.16
RDEDEKEKIKEALKRGNEDKAKEILKRANVSPEEYERLRKEAE [A25L]	0.818
RDEDEKEKIKEALKRGNEDKAKEIQKRANVSPEEYERLRKEAE [A25Q]	2.15
RDEDEKEKIKEALKRGNEDKAKEIYKRANVSPEEYERLRKEAE [A25Y]	0.541
RDEDEKEKIKEALKRGNEDKAKEIHKRANVSPEEYERLRKEAE [A25H]	0.547
RDEDEKEKIKEALKRGNEDKAKEIWKRANVSPEEYERLRKEAE [A25W]	-0.051
RDEDEKEKIKEALKRGNEDKAKEIPKRANVSPEEYERLRKEAE [A25P]	0.533
RDEDEKEKIKEALKRGNEDKAKEIKKRANVSPEEYERLRKEAE [A25K]	0.845
RDEDEKEKIKEALKRGNEDKAKEIIKRANVSPEEYERLRKEAE [A25I]	0.742
RDEDEKEKIKEALKRGNEDKAKEIGKRANVSPEEYERLRKEAE [A25G]	1.3
RDEDEKEKIKEALKRGNEDKAKEIVKRANVSPEEYERLRKEAE [A25V]	1.37
RDEDEKEKIKEALKRGNEDKAKEIMKRANVSPEEYERLRKEAE [A25M]	1.88
RDEDEKEKIKEALKRGNEDKAKEISKRANVSPEEYERLRKEAE [A25S]	1.74
RDEDEKEKIKEALKRGNEDKAKEINKRANVSPEEYERLRKEAE [A25N]	0.52
RDEDEKEKIKEALKRGNEDKAKEIAKRAGVSPEEYERLRKEAE [N29G]	3.3
RDEDEKEKIKEALKRGNEDKAKEIAKRATVSPEEYERLRKEAE [N29T]	1.58
RDEDEKEKIKEALKRGNEDKAKEIAKRAFVSPEEYERLRKEAE [N29F]	2.29
RDEDEKEKIKEALKRGNEDKAKEIAKRASVSPEEYERLRKEAE [N29S]	2.42
RDEDEKEKIKEALKRGNEDKAKEIAKRAAVSPEEYERLRKEAE [N29A]	2.34
RDEDEKEKIKEALKRGNEDKAKEIAKRAWVSPEEYERLRKEAE [N29W]	1.51

Variant	folding stability dG [kcal/mol]
RDEDEKEKIKEALKRGNEDKAKEIAKRAHVSPEEYERLRKEAE [N29H]	2.67
RDEDEKEKIKEALKRGNEDKAKEIAKRAQVSPEEYERLRKEAE [N29Q]	2.62
RDEDEKEKIKEALKRGNEDKAKEIAKRAIVSPEEYERLRKEAE [N29I]	1.23
RDEDEKEKIKEALKRGNEDKAKEIAKRAPVSPEEYERLRKEAE [N29P]	0.97
RDEDEKEKIKEALKRGNEDKAKEIAKRACVSPEEYERLRKEAE [N29C]	1.83
RDEDEKEKIKEALKRGNEDKAKEIAKRADVSPEEYERLRKEAE [N29D]	2.39
RDEDEKEKIKEALKRGNEDKAKEIAKRAEVSPEEYERLRKEAE [N29E]	2.29
RDEDEKEKIKEALKRGNEDKAKEIAKRARVSPEEYERLRKEAE [N29R]	2.55
RDEDEKEKIKEALKRGNEDKAKEIAKRALVSPEEYERLRKEAE [N29L]	2.22
RDEDEKEKIKEALKRGNEDKAKEIAKRAKVSPEEYERLRKEAE [N29K]	2.74
RDEDEKEKIKEALKRGNEDKAKEIAKRAVVSPEEYERLRKEAE [N29V]	1.41
RDEDEKEKIKEALKRGNEDKAKEIAKRAMVSPEEYERLRKEAE [N29M]	2.51
RDEDEKEKIKEALKRGNEDKAKEIAKRAYVSPEEYERLRKEAE [N29Y]	1.9
RDEDEKEKIKEALKRGNEDKAKEIAKRANKSPEEYERLRKEAE [V30K]	0.917
RDEDEKEKIKEALKRGNEDKAKEIAKRANTSPEEYERLRKEAE [V30T]	1.84
RDEDEKEKIKEALKRGNEDKAKEIAKRANQSPEEYERLRKEAE [V30Q]	0.766
RDEDEKEKIKEALKRGNEDKAKEIAKRANNSPEEYERLRKEAE [V30N]	0.389
RDEDEKEKIKEALKRGNEDKAKEIAKRANISPEEYERLRKEAE [V30I]	3.41
RDEDEKEKIKEALKRGNEDKAKEIAKRANASPEEYERLRKEAE [V30A]	0.849
